Reference: patent US20120269817A1 (Bayer, published 2012)

T1: human tissue factor pathway inhibitor (TFPI) (human, UniProt P10646 29-304, limits assumed)
T1 construct: Bought protein; also called human TFPI; hTFPI
T1 sequence (looked up): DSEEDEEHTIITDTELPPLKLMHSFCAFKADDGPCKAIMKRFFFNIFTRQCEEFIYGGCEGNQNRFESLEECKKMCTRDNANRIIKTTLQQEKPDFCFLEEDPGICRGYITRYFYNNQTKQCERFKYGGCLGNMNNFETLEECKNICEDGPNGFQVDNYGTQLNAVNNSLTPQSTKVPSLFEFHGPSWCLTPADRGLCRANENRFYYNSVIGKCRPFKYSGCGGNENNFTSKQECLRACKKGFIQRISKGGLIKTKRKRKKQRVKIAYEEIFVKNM

T2: mouse tissue factor pathway inhibitor (TFPI) (mouse, UniProt O54819 29-289, limits assumed)
T2 construct: Bought protein; also called mouse TFPI; mTFPI
T2 sequence (looked up): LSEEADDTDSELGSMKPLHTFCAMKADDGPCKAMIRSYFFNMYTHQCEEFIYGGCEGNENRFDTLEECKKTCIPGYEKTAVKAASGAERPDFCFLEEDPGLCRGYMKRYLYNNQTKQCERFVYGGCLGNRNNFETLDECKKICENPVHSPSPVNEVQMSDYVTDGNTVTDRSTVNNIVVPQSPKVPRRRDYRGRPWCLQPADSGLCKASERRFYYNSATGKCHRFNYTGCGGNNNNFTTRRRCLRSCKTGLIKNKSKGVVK


Experiments:
BSA = target: T3, BSA (bovine, UniProt P02769 25-607); test: ELISA
T3 construct: also called bovine serum albumin
T3 sequence (P02769 25-607 limits assumed): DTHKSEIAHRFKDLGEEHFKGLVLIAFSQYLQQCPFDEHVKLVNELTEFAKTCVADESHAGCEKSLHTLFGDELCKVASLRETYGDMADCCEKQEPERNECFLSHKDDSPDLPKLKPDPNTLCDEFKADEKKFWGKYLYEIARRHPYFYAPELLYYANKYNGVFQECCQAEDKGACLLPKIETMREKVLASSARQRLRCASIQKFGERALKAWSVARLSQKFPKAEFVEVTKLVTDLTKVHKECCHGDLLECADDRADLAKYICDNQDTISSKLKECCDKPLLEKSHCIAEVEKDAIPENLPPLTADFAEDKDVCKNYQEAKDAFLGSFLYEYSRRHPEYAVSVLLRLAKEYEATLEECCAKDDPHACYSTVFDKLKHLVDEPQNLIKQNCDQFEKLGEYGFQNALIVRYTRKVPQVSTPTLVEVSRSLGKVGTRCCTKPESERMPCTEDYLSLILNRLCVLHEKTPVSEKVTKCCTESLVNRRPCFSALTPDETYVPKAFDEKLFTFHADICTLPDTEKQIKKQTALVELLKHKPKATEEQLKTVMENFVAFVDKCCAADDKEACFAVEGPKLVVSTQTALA
Method: (§1) To select antibody clones that bind to human TFPI, Fab genes of the phage clones from the second and third round of panning were subcloned into a bacterial expression vector and expressed in E. coli strain TG1. The bacterial lysate was added to the wells of the human TFPI-coated Maxisorp plates. After washing, HRP-conjugated goat anti-human Fab was used as a detection antibody and the plates were developed by adding AmplexRed (Invitrogen) with hydrogen peroxide. A signal of at least five-fold higher than the background was considered as positive. The cross reactivity of the anti-human TFPI antibodies to mouse TFPI was determined by a similar mouse TFPI-binding ELISA. The plates were coated with mouse TFPI (R&D System), BSA and lysozyme. The later two antigens were used as negative controls.

[1] = target: T1, human tissue factor pathway inhibitor …; test: ELISA, Fab lysate on coated human TFPI
Method: as §1

[2] = target: T1, human tissue factor pathway inhibitor …; test: ELISA, Fab on coated TFPI
Method: as §1
(§2) Purified Fab antibodies were used to determine EC₅₀ of anti-TFPI antibodies to human or mouse TFPI. EC₅₀ was assessed in an ELISA, similarly as described above. The results were analyzed using SoftMax. The binding affinity of anti-TFPI antibodies was determined in a Biacore assay. Briefly, the antigen, either human or mouse TFPI, was immobilized on the CM5-chips using the amine coupling kit (GE HealthCare) according to the instructions of the manufacturer. The amount of immobilized TFPI was adjusted to the mass of the antigen to give approximate 300 RU. The antibody Fabs were analyzed in mobile phase and at least five different concentrations (0.1, 0.4, 1.6, 6.4 and 25 nM) of the purified antibodies were used in the Biacore assay. The kinetics and binding affinity were calculated using Biacore T100 Evaluation software.

[3] = target: T2, mouse tissue factor pathway inhibitor …; test: ELISA, Fab on coated TFPI
Method: as §1, §2

[4] = target: T1, human tissue factor pathway inhibitor …; test: cell-based or functional assay
[5] = target: T1, human tissue factor pathway inhibitor …; test: Biacore, TFPI on CM5 chip, Fab in mobile phase
Method: as §2

[6] = target: T2, mouse tissue factor pathway inhibitor …; test: Biacore, TFPI on CM5 chip, Fab in mobile phase
Method: as §2

Row | Binder | binding result (BSA) | binding result [1] | EC50 [2] | EC50 [3] | % inhibition of hTFPI activity [4] | dPT in hemoA plasma [4] | Kd [5] | Kd [6]
1 | TP-3D3 Fab (Fab, V domains shown, Human Fab from HuCal Gold, expressed in E. coli TG1) VH: QVQLVESGGGLVQPGGSLRLSCAASGFTFSSYASWVRQAPGKGLEWVSGISGDGSNTHYADSVKGRFTISRDNSKNTLYLQMNSLRAEDTAVYYCARYDNFYFDVWGQGTLVTVSS VL: DIELTQPPSVSVAPGQTARISCSGDSLGSKFAHWYQQKPGQAPVLVIYDDSNRPSGIPERFSGSNSGNTATLTISGTQAEDEADYYCSTYTSRSHSYVFGGGTKLTVLG | no binding | binds |  |  |  |  |  | 
2 | TP-2B3 Fab (Fab, V domains shown, Human Fab from HuCal Gold, expressed in E. coli TG1) VH: QVQLQQSGPGLVKPSQTLSLTCAISGDSVSSNSAAWGWIRQSPGRGLEWLGMIYYRSKWYNSYAVSVKSRITINPDTSKNQFSLQLNSVTPEDTAVYYCARTMSKYGGPGMDVWGQGTLVTVSS VL: DIVLTQSPATLSLSPGERATLSCRASQNIGSNYLAWYQQKPGQAPRLLIYGASTRATGVPARFNGSGSGTDFTLTISSLEPEDFAVYYCQQLNSIPVTFGQGTKVEIKR | no binding |  | 0.84 nM | 20.2 nM | 100% | 74 s | 7.4 nM | 27 nM
3 | TP-4A7 Fab (Fab, V domains shown, Human Fab from HuCal Gold, expressed in E. coli TG1) VH: QVQLVESGGGLVQPGGSLRLSCAASGFTFRNYAMNWVRQAPGKGLEWVSVISGSSSYTYYADSVKGRFTISRDNSKNTLYLQMNSLRAEDTAVYYCARADLPYMVFDYWGQGTLVTVSS VL: DIELTQPPSVSVAPGQTARISCSGDALGSKFAHWYQQKPGQAPVLVIYDDSERPSGIPERFSGSNSGNTATLTISGTQAEDEADYYCQAYDSGLLYVFGGGTKLTVLG | no binding | binds |  |  |  |  |  | 
4 | TP-2H10 Fab (Fab, V domains shown, Human Fab from HuCal Gold, expressed in E. coli TG1) VH: QVQLQQSGPGLVKPSQTLSLTCAISGDSVSSNGAAWGWIRQSPGRGLEWLGFIYRRSKWYNSYAVSVKSRITINPDTSKNQFSLQLNSVTPEDTAVYYCARQDGMGGMDSWGQGTLVTVSS VL: not shown | no binding |  | 2.18 nM | 32.4 nM | 63% | 79.5 s | 10.2 nM | 11.5 nM
5 | TP-3C2 Fab (Fab, V domains shown, Human Fab from HuCal Gold, expressed in E. coli TG1) VH: QVQLQQSGPGLVKPSQTLSLTCAISGDSVSSSSAAWSWIRQSPGRGLEWLGMIYYRSKWYNHYAVSVKSRITINPDTSKNQFSLQLNSVTPEDTAVYYCARGGSGVMDVWGQGTLVTVSS VL: DIQMTQSPSSLSASVGDRVTITCRASQSITNYLNWYQQKPGKAPKLLIYDVSNLQSGVPSRFSGSGSGTDFTLTISSLQPEDFAVYYCQQYSGYPLTFGQGTKVEIKR | no binding |  | 59 nM | 957 nM | 92% | 68.9 s | 17.1 nM | 28.5 nM
6 | TP-2G6 Fab (Fab, V domains shown, Human Fab from HuCal Gold, expressed in E. coli TG1) VH: QVQLQQSGPGLVKPSQTLSLTCAISGDSVSSSSAAWSWIRQSPGRGLEWLGIIYYRSKWYNDYAVSVKSRITINPDTSKNQFSLQLNSVTPEDTAVYYCARHSMVGFDVWGQGTLVTVSS VL: DIVLTQSPATLSLSPGERATLSCRASQYVTSSYLAWYQQKPGQAPRLLIYGSSRATGVPARFSGSGSGTDFTLTISSLEPEDFATYYCQQYSSSPITFGQGTKVEIKR | no binding |  | 0.48 nM | 5.18 nM | 86% | 62.8 s | 5.06 nM | 46.1 nM
7 | TP-2A5.1 Fab (Fab, V domains shown, Human Fab from HuCal Gold, expressed in E. coli TG1) VH: QVQLVESGGGLVQPGGSLRLSCAASGFTFSSYGSWVRQAPGKGLEWVSVISGSGSSTYYADSVKGRFTISRDNSKNTLYLQMNSLRAEDTAVYYCARVNISTHFDVWGQGTLVTVSS VL: DIELTQPPSVSVAPGQTARISCSGDNIPEKYVHWYQQKPGQAPVLVIHGDNNRPSGIPERFSGSNSGNTATLTISGTQAEDEADYYCQSFDAGSYFVFGGGTKLTVLG | no binding |  | 28.6 nM | 14.5 nM | 30% | 70.8 s | 35.4 nM | 19.6 nM
8 | TP-2G5 Fab (Fab, V domains shown, Human Fab from HuCal Gold, expressed in E. coli TG1) VH: QVQLQQSGPGLVKPSQTLSLTCAISGDSVSSNSAAWSWIRQSPGRGLEWLGFIYYRSKWYNDYAVSVKSRITINPDTSKNQFSLQLNSVTPEDTAVYYCARHNPDLGFDYWGQGTLVTVSS VL: not shown | no binding |  | 343 nM | 871 nM | 36% | 73.2 s | 42.1 nM | 16.1 nM

Results, then the binder that gave them:

Row | binding result (BSA) | binding result [1] | EC50 [2] | EC50 [3] | % inhibition of hTFPI activity [4] | dPT in hemoA plasma [4] | Kd [5] | Kd [6] | Binder
9 | no binding | binds |  |  |  |  |  |  | TP-3F2 Fab (Fab, V domains shown, Human Fab from HuCal Gold, expressed in E. coli TG1) VH: QVQLVESGGGLVQPGGSLRLSCAASGFTFSSYSMHWVRQAPGKGLEWVSGISYSSSFTYYADSVKGRFTISRDNSKNTLYLQMNSLRAEDTAVYYCARALGGGVDYWGQGTLVTVSS VL: DIELTQPPSVSVAPGQTARISCSGDNLPSKSVYWYQQKPGQAPVLVIYGDNNRPSGIPERFSGSNSGNTATLTISGTQAEDEADYYCQSWTSRPMVVFGGGTKLTVLG
10 | no binding | binds |  |  |  |  |  |  | TP-3E1 Fab (Fab, V domains shown, Human Fab from HuCal Gold, expressed in E. coli TG1) VH: QVQLVESGGGLVQPGGSLRLSCAASGFTFSNYAMTWVRQAPGKGLEWVSVISSVGSNTYYADSVKGRFTISRDNSKNTLYLQMNSLRAEDTAVYYCARPTKAGRTWWWGPYMDVWGQGTLVTVSS VL: DIELTQPPSVSVAPGQTARISCSGDNIGSYYAYWYQQKPGQAPVLVIYDDSNRPSGIPERFSGSNSGNTATLTISGTQAEDEADYYCQSYDSTGLLVFGGGTKLTVLG
11 | no binding |  | 35.8 nM | 34.6 nM | 25% | 69.1 s | 14.1 nM | 20.4 nM | TP-3B4 Fab (Fab, V domains shown, Human Fab from HuCal Gold, expressed in E. coli TG1) VH: QVQLQQSGPGLVKPSQTLSLTCAISGDSVSSNGAAWGWIRQSPGRGLEWLGHIYYRSKWYNSYAVSVKSRITINPDTSKNQFSLQLNSVTPEDTAVYYCARWGGIHDGDIYFDYWGQGTLVTVSS VL: DIQMTQSPSSLSASVGDRVTITCRASQNISNYLNWYQQKPGKAPKLLIYGTSSLQSGVPSRFSGSGSGTDFTLTISSLQPEDFAVYYCQQYGNNPTTFGQGTKVEIKR
12 | no binding |  | 0.09 nM | 0.06 nM | 100% | 57.9 s | 1.25 nM | 3.08 nM | TP-2A8 Fab (Fab, V domains shown, Human Fab from HuCal Gold, expressed in E. coli TG1; also called Fab-2A8) VH: QVQLVESGGGLVQPGGSLRLSCAASGFTFRSYGMSWVRQAPGKGLEWVSSIRGSSSSTYYADSVKGRFTISRDNSKNTLYLQMNSLRAEDTAVYYCARKYRYWFDYWGQGTLVTVSS VL: DIELTQPPSVSVAPGQTARISCSGDNLRNYYAHWYQQKPGQAPVVVIYYDNNRPSGIPERFSGSNSGNTATLTISGTQAEDEADYYCQSWDDGVPVFGGGTKLTVLG
13 | no binding | binds |  |  |  |  |  |  | TP-3H2 Fab (Fab, V domains shown, Human Fab from HuCal Gold, expressed in E. coli TG1) VH: QVQLVESGGGLVQPGGSLRLSCAASGFTFNSYYMSWVRQAPGKGLEWVSNISSSGSNTNYADSVKGRFTISRDNSKNTLYLQMNSLRAEDTAVYYCARVHYGFDFWGQGTLVTVSS VL: DIELTQPPSVSVAPGQTARISCSGDKLGKYYAYWYQQKPGQAPVLVIYGDSKRPSGIPERFSGSNSGNTATLTISGTQAEDEADYYCSSAAFGSTVFGGGTKLTVLG
